From doi:10.1101/2024.11.06.622243

Molecular target: T1, HA-Halo-MRAP2 (human), Q96G30
T1 chain: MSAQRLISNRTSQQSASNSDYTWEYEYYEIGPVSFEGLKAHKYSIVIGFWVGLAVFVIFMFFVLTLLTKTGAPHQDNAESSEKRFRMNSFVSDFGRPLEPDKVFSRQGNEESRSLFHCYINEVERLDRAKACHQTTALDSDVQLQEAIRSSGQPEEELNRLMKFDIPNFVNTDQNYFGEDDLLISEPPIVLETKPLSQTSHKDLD
Assay: single-molecule pull-down (SiMPull); one-colour SiMPull with photobleaching step analysis: HA-Halo-tagged protein labelled on HEK293 cells with membrane-impermeable CA-Sulfo646, lysed in 0.5% LMNG/0.05% CHS, immobilised by biotinylated anti-HA antibody on a PEG-passivated slide, TIRF imaging
Conditions: remark: other sources report otherwise

percent of molecules with one bleaching step: 68%
percent of molecules with three or four bleaching steps: < 5%
percent of molecules with two bleaching steps: 28%
B1: HA-Halo-MRAP2, Q96G30 1-205 (natural protein)
chain: MSAQRLISNRTSQQSASNSDYTWEYEYYEIGPVSFEGLKAHKYSIVIGFWVGLAVFVIFMFFVLTLLTKTGAPHQDNAESSEKRFRMNSFVSDFGRPLEPDKVFSRQGNEESRSLFHCYINEVERLDRAKACHQTTALDSDVQLQEAIRSSGQPEEELNRLMKFDIPNFVNTDQNYFGEDDLLISEPPIVLETKPLSQTSHKDLD
modifications: here or on the partner: CA-Sulfo646 dye on the Halo tag; CA-Sulfo646 dye on the Halo tag
